In the nanobody polyreactivity screen of Harvey et al. (2022):

Assay: yeast display, Sf9 membrane polyspecificity reagent, FACS + sequencing; frameworks hold sequencing errors
In short: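 Galactose induction of a Saccharomyces cerevisiae BJ5465 synthetic nanobody display library ran 36–48 hours. The cells were then stained for 1 hour at 4 °C with 10% biotinylated, detergent-solubilized Sf9 membrane reagent, pulled down on streptavidin microbeads and FACS-sorted into low and high (top ~1%) gates on expression and reagent-binding fluorescence. Labels for polyreactivity follow the gate of origin.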

Sequence	polyreactivity (PSR sort gate)
QVQLVESGGGLVQAGGSLRLSCAASGSTFYANAKGWYRQAPGKERELVAAISSTGGSTYYADSVKGRFTISRDNAKNTVYLQMNSLKPEDTAVYYCAARARWIVAYDLGYWGQGTQVTVSS	low polyreactivity
QVQLVESGGGLVQAGGSLRLSCAASGSTFYANGMGRYRQAPGKERELDAAISWSGGSTYYADSVKGRFTISRDNAKNTVYLQMNSLKPEDTAVYYCAAAYRSFINGRWYDYWGQGTQVTVSS	low polyreactivity
QVQLVESGGGLVQAGGSLRLSCAASGSTFYAYAMGSYRQSPGKERELVAVITSGGTTKYADSVKGRFTISRDNAKNTVYLQLNSLKPEDTAVYYCNVAGRDYAVRWGSFVFWGQGTQVTVSS	low polyreactivity
QVQLVESGGGLVQAGGSLRLSCAASGSTFYAYTMGWYRKAPGKERELVAGISRRGGTTYYADSVKGRFTISRDNAKNTVYLQMNSLKPEDTAVYYCAADKTKPQASEGYYAYYYWGQGTQVTVSS	low polyreactivity
QVQLVESGGGLVQAGGSLRLSCAASGSTFYDYAMGWYRQAPGKERELVAAMSSSGARTYYADSVKGRFTISRDNAKNSVYLQMNSLKPEDTAVYYCGAKPHTRTTCPSGYWGQATQVTVSS	high polyreactivity
QVQLVESGGGLVQAGGSLRLSCAASGSTFYDYAMGWYRQAPGKERELVAGIRNGGSTNYADSVKGRFTISRDNAKNTVYLQMNSLIPEDTAVYYCAAPRWDGFYSYYRVVWGIFDYWGQGTQVTVSS	low polyreactivity
QVQLVESGGGLVQAGGSLRLSCAASGSTFYDYAMGWYRQAPGKERELVASIDSGDSTNYADSVKGRFTISRDNAKNTVYLQMNSLKPEDTAVYYCAARVYSVADYYYWGQGTQVTVSS	low polyreactivity
QVQLVESGGGLVQAGGSLRLSCAASGSTFYDYVMGWYRQAPGKERELFAAISRTGASTYYADSVKGRFTISRDNAKNTVYLQMNSLKPVDTAVYYCAADSDTVRYYYWGQGTQVTVSS	high polyreactivity
QVQLVESGGGLVQAGGSLRLSCAASGSTFYENAMVWSRQAPGKDRELVAAISRSTGRTYYADSVKGRFTISRDNAKNTVYLQMNSLKPEDTAVYYCAARVYGRMYFWGQGTQVTVSS	high polyreactivity
QVQLVESGGGLVQAGGSLRLSCAASGSTFYFYAMGWYRQAPGKERELVAAITYSGDRTRYADSVKGRFTISRDNAKNTVYLQMNSLKPEDTAVYYCAARYVGARNAYRMGYWGQGTQVTVSS	high polyreactivity
QVQLVESGGGLVQAGGSLRLSCAASGSTFYFYARGWYRQAPGKERELVAVISSGGTTNYADSVKGRFTISRDNAKNTVYLQMNSLKPEDTAVYYCNAEPPRGYTVSSGGEMDYWGQGTQVTVSS	low polyreactivity
QVQLVESGGGLVQAGGSLRLSCAASGSTFYGNAMGWYRQATGKERELVAAIRWRGGRTYYADSVKGRFTISRDNAKNTVYLQMNSLKPEDTAVYYCNALPGVSHTQYDRVGYWGQGTQVTVSS	high polyreactivity
QVQLVESGGGLVQAGGSLRLSCAASGSTFYGNMGWYRQAPGKERALVAAITYRGTNTYYADSVKGRFTISRDNAKNTVYLQMNSLKPEDTAVYYCAAEYDVYQGRGRYYGYDYWGQGTQVTVSS	high polyreactivity
QVQLVESGGGLVQAGGSLRLSCAASGSTFYGYAMGGNRQAPGKERELVAAMTWGGASTYYADSVKGRFTIARDNAKNTVYLQMNSLKPEDTAVYYCATVGWGYQPYPFGMDYWGQGTQVTVSS	low polyreactivity
QVQLVESGGGLVQAGGSLRLSCAASGSTFYGYAMGWNRQAPGKERELVADIDSIAGSTYYADSVKGRFTISRDNAKNTVYLQMNSLKPEDTAVYYCAARRFDTALVLYDYWGQGTQVTVSS	low polyreactivity
QVQLVESGGGLVQAGGSLRLSCAASGSTFYGYAMGWYRQAPGKERELVAAIRSGGRTYYADSVKGRFTISRDNAKNTVYLQMNSLKPEDTAVYYCNARSFNYRTFGGKMGYWGQGTQVTVSS	high polyreactivity
QVQLVESGGGLVQAGGSLRLSCAASGSTFYGYGLGWYRPAPGKERELFAAITGSGDTTYYADSVKGRFTISRDNAKNTVYLQMNSLKPEDTAVYYCNARWHAEYDYWGQGTQVTVSS	low polyreactivity
QVQLVESGGGLVQAGGSLRLSCAASGSTFYGYTMGWYRQAPGKERELVAVITSGGSTYYADSVKGRFTISRDNAKNTVYLQMNSLKPEDTAVYYCAKRYGYPAYGRPWRIGRTYDYWGQGTQVTVSS	low polyreactivity
QVQLVESGGGLVQAGGSLRLSCAASGSTFYHNAMGWYRQAPGKERELVAAMTWSGSRTYYADSVKGRFTISRDNAKNTVYLQMNSLKPEDTAVYYCAARDYWGQGTQVTVSS	high polyreactivity
QVQLVESGGGLVQAGGSLRLSCAASGSTFYHYAMGWYRQAPGKERELVAAISTSGGRTYDADSVKGRFTISRDNAKNNVYLQMNSLKPEDTAVYYCAARPGSWYPSVPSYNYWGQGTQVTVSS	low polyreactivity
QVQLVESGGGLVQAGGSLRLSCAASGSTFYIHAMGWNRQAPGKERELVAAISATGTRTYYADSVKGRFTISRDNAKNTFYLQMNSLKPEDTAVYYWNAVYWYWWVITYVGPGLGYWGQVTQVTVSS	high polyreactivity
QVQLVESGGGLVQAGGSLRLSCAASGSTFYIYAIGLYRQAPGKERELVAAINWRTGSTYYADSVMGRFTISRDNAKNTVYLQMNSLKPEDTAVYYWNAYTQHWSYWGQGTQVTVSS	high polyreactivity
